B1: Hairpin Ribozyme (parent)
chain: GUCCUCUUUCACGUGCGCGUGAAAGAGAGAAGUGAACCAGAGAAACACACGUUGUGGUAUAUUACCUGGUA

Variants of: B1
Assay: self-cleavage, relative activity (ratio to wild type); higher = more cleavage; co-transcriptional

| Variant | self-cleavage |
| --- | --- |
| GUCCUCUGUCACGUGCGCGUGAAAGAGAGAAGUGAACCAGAGAAACACACGUUGUGGUAUAUUACAUGGUA | 0.169 |
| GUCCUCUGUCACGUGCGCGUGAAAGAGAGAAGUGAACCAGAGAAACACACGUUGUGGUAUAUUACGUGGUA | 0.162 |
| GUCCUCUGUCACUUGCGCGUGAAAGAGAGAAGUGAACCAGAGAAACACACGUUGUGGUAUAUUACCUGGUA | 0.438 |
| GUCCUCUGUCACGUGCUCGUGAAAGAGAGAAGUGAACCAGAGAAACACACGUUGUGGUAUAUUACCUGGUA | 0.651 |
| GUCCUCUGUCACGUGCGCGUUAAAGAGAGAAGUGAACCAGAGAAACACACGUUGUGGUAUAUUACCUGGUA | 0.523 |
| GUCCUCUGUCACGUGCGCGUGAAACAGAGAAGUGAACCAGAGAAACACACGUUGUGGUAUAUUACCUGGUA | 0.0293 |
| GUCCUCUGUCACGUGCGCGUGAAAGAAAGAAGUGAACCAGAGAAACACACGUUGUGGUAUAUUACCUGGUA | 0.43 |
| GUCCUCUGUCACGUGCGCGUGAAAGACAGAAGUGAACCAGAGAAACACACGUUGUGGUAUAUUACCUGGUA | 0.139 |
| GUCCUCUGUCACGUGCGCGUGAAAGAGAAAAGUGAACCAGAGAAACACACGUUGUGGUAUAUUACCUGGUA | 0.154 |
| GUCCUCUGUCACGUGCGCGUGAAAGAGAUAAGUGAACCAGAGAAACACACGUUGUGGUAUAUUACCUGGUA | 0.112 |
| GUCCUCUGUCACGUGCGCGUGAAAGAGAGAACUGAACCAGAGAAACACACGUUGUGGUAUAUUACCUGGUA | 0.12 |
| GUCCUCUGUCACGUGCGCGUGAAAGAGAGAAUUGAACCAGAGAAACACACGUUGUGGUAUAUUACCUGGUA | 0.0934 |
| GUCCUCUGUCACGUGCGCGUGAAAGAGAGAAGUUAACCAGAGAAACACACGUUGUGGUAUAUUACCUGGUA | 1.28 |
| GUCCUCUGUCACGUGCGCGUGAAAGAGAGAAGUGAACCAGACAAACACACGUUGUGGUAUAUUACCUGGUA | 0.284 |
| GUCCUCUGUCACGUGCGCGUGAAAGAGAGAAGUGAACCAGAUAAACACACGUUGUGGUAUAUUACCUGGUA | 0.254 |
| GUCCUCUGUCACGUGCGCGUGAAAGAGAGAAGUGAACCAGAGAAACACACUUUGUGGUAUAUUACCUGGUA | 0.886 |
| GUCCUCUGUCACGUGCGCGUGAAAGAGAGAAGUGAACCAGAGAAACACACGUUGUUGUAUAUUACCUGGUA | 0.169 |
| GUCCUCUGUCACGUGCGCGUGAAAGAGAGAAGUGAACCAGAGAAACACACGUUGUGAUAUAUUACCUGGUA | 0.102 |
| GUCCUCUGUCACGUGCGCGUGAAAGAGAGAAGUGAACCAGAGAAACACACGUUGUGCUAUAUUACCUGGUA | 0.192 |

| Variant | self-cleavage |
| --- | --- |
| GUCCUCUGUCACGUGCGCGUGAAAGAGAGAAGUGAACCAGAGAAACACACGUUGUGGUAUAUUACCUAGUA | 0.119 |
| GUCCUCUGUCACGUGCGCGUGAAAGAGAGAAGUGAACCAGAGAAACACACGUUGUGGUAUAUUACCUUGUA | 0.268 |
| GUCCUCUGUCACGUGCGCGUGAAAGAGAGAAGUGAACCAGAGAAACACACGUUGUGGUAUAUUACCUGUUA | 0.29 |
| GUCCUCUGACACGUGCGCGUGAAAGAGAGAAGUGAACCAGAGAAACACACGUUGUGGUAUAUUACCUGGUA | 0.734 |
| GUCCUCUGUCACGAGCGCGUGAAAGAGAGAAGUGAACCAGAGAAACACACGUUGUGGUAUAUUACCUGGUA | 0.554 |
| GUCCUCUGUCACGCGCGCGUGAAAGAGAGAAGUGAACCAGAGAAACACACGUUGUGGUAUAUUACCUGGUA | 0.814 |
| GUCCUCUGUCACGGGCGCGUGAAAGAGAGAAGUGAACCAGAGAAACACACGUUGUGGUAUAUUACCUGGUA | 0.542 |
| GUCCUCUGUCACGUGCGCGUGAAAGAGAGAAGGGAACCAGAGAAACACACGUUGUGGUAUAUUACCUGGUA | 0.111 |
| GUCCUCUGUCACGUGCGCGUGAAAGAGAGAAGUGAACCAGAGAAACACACGAUGUGGUAUAUUACCUGGUA | 0.752 |
| GUCCUCUGUCACGUGCGCGUGAAAGAGAGAAGUGAACCAGAGAAACACACGGUGUGGUAUAUUACCUGGUA | 0.621 |
| GUCCUCUGUCACGUGCGCGUGAAAGAGAGAAGUGAACCAGAGAAACACACGUUGGGGUAUAUUACCUGGUA | 0.223 |
| GUCCUCUGUCACGUGCGCGUGAAAGAGAGAAGUGAACCAGAGAAACACACGUUGUGGCAUAUUACCUGGUA | 0.725 |
| GUCCUCUGUCACGUGCGCGUGAAAGAGAGAAGUGAACCAGAGAAACACACGUUGUGGUAAAUUACCUGGUA | 0.647 |
| GUCCUCUGUCACGUGCGCGUGAAAGAGAGAAGUGAACCAGAGAAACACACGUUGUGGUACAUUACCUGGUA | 0.845 |
| GUCCUCUGUCACGUGCGCGUGAAAGAGAGAAGUGAACCAGAGAAACACACGUUGUGGUAUAGUACCUGGUA | 0.163 |
| GUCCUCUGUCACGUGCGCGUGAAAGAGAGAAGUGAACCAGAGAAACACACGUUGUGGUAUAUCACCUGGUA | 0.155 |
| GUCCUCUGUCACGUGCGCGUGAAAGAGAGAAGUGAACCAGAGAAACACACGUUGUGGUAUAUGACCUGGUA | 0.172 |
| GUCCUCUGUCACGUGCGCGUGAAAGAGAGAAGUGAACCAGAGAAACACACGUUGUGGUAUAUUACCUGGCA | 0.675 |
| GUCCUCUGUCACGUGCGCGUGAAAGAGAGAAGUGAACCAGAGAAACACACGUUGUGGUAUAUUACCUGGGA | 0.608 |
